{"source": "paper doi:10.1101/2025.07.01.662558", "about": "(bioRxiv, 2025)", "target": "T1, Hsp90 from S. oneidensis (Hsp90So), purified, non-labeled (S. oneidensis, UniProt Q8EFF7 1-637)", "T1 sequence (looked up)": "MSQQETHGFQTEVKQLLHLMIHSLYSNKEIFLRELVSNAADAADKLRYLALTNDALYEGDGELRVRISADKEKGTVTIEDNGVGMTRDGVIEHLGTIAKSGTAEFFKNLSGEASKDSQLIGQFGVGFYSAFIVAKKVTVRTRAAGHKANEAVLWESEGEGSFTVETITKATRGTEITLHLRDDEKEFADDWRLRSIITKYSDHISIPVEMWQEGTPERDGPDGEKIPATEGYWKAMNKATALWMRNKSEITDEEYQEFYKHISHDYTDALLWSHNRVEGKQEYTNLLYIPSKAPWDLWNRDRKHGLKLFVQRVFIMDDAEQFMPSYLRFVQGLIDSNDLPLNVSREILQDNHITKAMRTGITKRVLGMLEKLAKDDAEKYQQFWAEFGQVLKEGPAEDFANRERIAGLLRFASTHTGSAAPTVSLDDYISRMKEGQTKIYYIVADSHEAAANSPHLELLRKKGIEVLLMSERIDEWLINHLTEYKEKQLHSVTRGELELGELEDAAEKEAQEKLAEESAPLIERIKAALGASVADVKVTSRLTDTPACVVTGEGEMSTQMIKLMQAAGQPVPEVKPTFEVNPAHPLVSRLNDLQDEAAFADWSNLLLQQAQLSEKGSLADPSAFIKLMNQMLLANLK", "assay": "MST"}
{"binder": "TilS from S. oneidensis (TilSSo), purified, with 6-His tag (natural protein, UniProt Q8EGF9 1-464, looked up, RED-tris-NTA 2nd generation dye (NanoTemper) on the 6-His tag) MTAQDLSVHIARWLDSLPLQAGSKLVLAYSGGVDSEVLAYGLSEYAKQRPDLRYQLIYVHHGLSPNADNWAKHCQARAAIYGLPVTVERVQLILGPRVSVEAEARKARYQAILPHLNPQDILLTAHHEDDQLETILLALKRGQGPKGLAAMGQIQPLSLADKGSCLQVRPLLDISREMIETFAQTRQLVHIEDESNQDDKYDRNFLRLEIIPRLKARWPSIATTASRSAQLCAEQQAIVETEVSERLPKLLVKAPVTEQTVLKLSELAAQPIEWQGILLRGFIESQEFSLPSYVQLQQMLQQLIHAKEDAKVHIRINDCVLRRFAGMLYLDSGETLSTALHITARDLHQEILTLLTQASAMVEDKIVPFALVTTGPRLRLPKADEVVSLGYGLPGQFRCQPHFRDKGRELKKLWQECAVPPWLRAEVGFLFYNDKLVMAFGLWVEKAFCAQGDEIGLSYLIANP", "values": [{"measurement": "Kd", "value": 1090, "unit": "nM"}]}
{"binder": "TilSSoL340P, purified (natural protein, S. oneidensis, UniProt Q8EGF9 1-464, looked up, RED-tris-NTA 2nd generation dye (NanoTemper)) MTAQDLSVHIARWLDSLPLQAGSKLVLAYSGGVDSEVLAYGLSEYAKQRPDLRYQLIYVHHGLSPNADNWAKHCQARAAIYGLPVTVERVQLILGPRVSVEAEARKARYQAILPHLNPQDILLTAHHEDDQLETILLALKRGQGPKGLAAMGQIQPLSLADKGSCLQVRPLLDISREMIETFAQTRQLVHIEDESNQDDKYDRNFLRLEIIPRLKARWPSIATTASRSAQLCAEQQAIVETEVSERLPKLLVKAPVTEQTVLKLSELAAQPIEWQGILLRGFIESQEFSLPSYVQLQQMLQQLIHAKEDAKVHIRINDCVLRRFAGMLYLDSGETLSTAPHITARDLHQEILTLLTQASAMVEDKIVPFALVTTGPRLRLPKADEVVSLGYGLPGQFRCQPHFRDKGRELKKLWQECAVPPWLRAEVGFLFYNDKLVMAFGLWVEKAFCAQGDEIGLSYLIANP", "values": [{"measurement": "binding result", "value": "binds"}]}
